Data reported in patent US20120107297A1 (KOREA RESEARCH INSTITUTE OF BIOSCIENCE AND BIOTECHNOLOGY, published 2012).

B1: UCP (endogenous E2EPF ubiquitin carrier protein) (enzyme, human, UniProt Q16763 1-222, looked up)
chain: MNSNVENLPPHIIRLVYKEVTTLTADPPDGIKVFPNEEDLTDLQVTIEGPEGTPYAGGLFRMKLLLGKDFPASPPKGYFLTKIFHPNVGANGEICVNVLKRDWTAELGIRHVLLTIKCLLIHPNPESALNEEAGRLLLENYEEYAARARLLTEIHGGAGGPSGRAEAGRALASGTEASSTDPGAPGGPGGAEGPMAKKHAGERDKKLAAKKKTDKKRALRRL
notes: Endogenous protein in cell lysates; also called E2EPF-UCP; endogenous UCP

Key:
[1] = molecular target: B1; assay: summary sentence citing FIG. 7 and FIG. 8b
Procedure: (§1) CAKI (kidney cancer cell line) or HepG2 (liver cancer cell line) cells were collected from 10 100 mm culture dishes and frozen at −70° C. The frozen cells were lysed in 0.5 ml of a cell lysis buffer (50 mM Tris, 0.5 mM EDTA, 50 mM KCl, 10% glycerol, 1 mM DTT, 0.5% NP-40, 0.5 mM PMSF). The cell lysate was loaded in 10 ml of 5%-20% sucrose density gradient solution, followed by ultra-centrifugation at 35,000 rpm for 16 hours.

Elongin C (endogenous) = Elongin C (endogenous) (human, UniProt Q15369 1-112); assay: summary sentence citing FIG. 7 and FIG. 8b
Procedure: as §1

Rbx1 (endogenous) = Rbx1 (endogenous) (human, UniProt P62877 1-108); assay: summary sentence citing FIG. 7 and FIG. 8b
Procedure: as §1

[2] = molecular target: T1, VHL E3 ligase complex (comprising VHL, Elongin B, Elongin C and Rbx1) (human, UniProt P40337 1-213; Q15370 1-118; Q15369 1-112; P62877 1-108); assay: sucrose density gradient centrifugation of cell lysate, Western blot of fractions
T1 construct: also called VHL E3 ubiquitin ligase complex
Procedure: as §1

Rbx1 (endogenous), sequence (P62877 whole entry): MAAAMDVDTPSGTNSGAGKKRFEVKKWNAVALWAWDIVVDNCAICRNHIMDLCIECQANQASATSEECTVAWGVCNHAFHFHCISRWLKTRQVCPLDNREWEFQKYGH
Elongin C (endogenous), sequence (Q15369 whole entry): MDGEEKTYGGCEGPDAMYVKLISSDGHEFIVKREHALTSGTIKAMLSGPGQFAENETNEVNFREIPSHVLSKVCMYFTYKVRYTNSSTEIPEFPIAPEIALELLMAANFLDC
T1 sequence (P40337 whole entry, chain 1 of 3): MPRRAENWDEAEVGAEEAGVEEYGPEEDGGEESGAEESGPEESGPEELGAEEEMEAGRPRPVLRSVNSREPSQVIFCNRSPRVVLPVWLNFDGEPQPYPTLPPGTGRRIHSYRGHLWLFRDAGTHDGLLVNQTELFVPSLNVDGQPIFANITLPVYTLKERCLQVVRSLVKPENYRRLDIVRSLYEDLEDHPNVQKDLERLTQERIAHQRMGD
T1 sequence (Q15369 whole entry, chain 3 of 3): as the sequence (Q15369 whole entry) above
T1 sequence (P62877 whole entry, chain 4 of 3): as the sequence (P62877 whole entry) above

Row | Binder | binding result [1] | binding result (Elongin C (endogenous)) | binding result (Rbx1 (endogenous)) | binding result [2]
1 | Elongin B (endogenous) (other, human, UniProt Q15370 1-118, looked up) MDVFLMIRRHKTTIFTDAKESSTVFELKRIVEGILKRPPDEQRLYKDDQLLDDGKTLGECGFTSQTARPQAPATVGLAFRADDTFEALCIEPFSSPPELPDVMKPQDSGSSANEQAVQ | no binding | – | – | –
2 | B1 | – | no binding | no binding | no binding
